Where two headings read alike, the source gives them in different places.

Data set [1] concerns the target T1, His6-MTSF1 (lacking first 146 aa) (Arabidopsis thaliana? (Arabidopsis, …, UniProt Q9M9X9 147-987)).
T1 sequence: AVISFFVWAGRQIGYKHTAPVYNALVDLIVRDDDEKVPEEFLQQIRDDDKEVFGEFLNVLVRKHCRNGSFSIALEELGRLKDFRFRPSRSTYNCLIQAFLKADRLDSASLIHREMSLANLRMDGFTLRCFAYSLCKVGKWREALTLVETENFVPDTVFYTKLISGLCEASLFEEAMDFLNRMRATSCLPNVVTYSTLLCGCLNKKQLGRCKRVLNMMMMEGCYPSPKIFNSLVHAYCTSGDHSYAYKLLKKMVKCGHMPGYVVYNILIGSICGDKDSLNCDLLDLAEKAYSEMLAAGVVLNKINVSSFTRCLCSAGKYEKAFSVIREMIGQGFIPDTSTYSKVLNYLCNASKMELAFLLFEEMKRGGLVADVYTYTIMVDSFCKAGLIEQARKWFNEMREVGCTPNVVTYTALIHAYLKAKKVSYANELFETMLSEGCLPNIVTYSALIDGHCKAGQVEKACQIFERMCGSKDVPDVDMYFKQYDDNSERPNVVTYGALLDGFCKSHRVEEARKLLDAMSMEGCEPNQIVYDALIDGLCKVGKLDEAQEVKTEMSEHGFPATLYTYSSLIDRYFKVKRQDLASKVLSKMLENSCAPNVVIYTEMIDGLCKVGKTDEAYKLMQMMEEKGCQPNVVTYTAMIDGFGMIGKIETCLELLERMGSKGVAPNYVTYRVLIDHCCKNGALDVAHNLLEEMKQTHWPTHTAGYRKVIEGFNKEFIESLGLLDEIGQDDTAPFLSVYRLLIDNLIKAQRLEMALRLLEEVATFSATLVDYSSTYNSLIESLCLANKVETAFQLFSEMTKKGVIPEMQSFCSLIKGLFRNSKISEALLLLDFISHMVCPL
Briefly: EMSA. On the technique in general: Mobility shift assays separate free from complexed probe on a gel.

In data set [2] the target is T1, His6-MTSF1 (lacking first 146 aa). Kind of data set: EMSA. This is another data set of the same source.

Take AACAUGGCAAAUUUCAUUGA (ssRNA) [3'ND4-2 (last 20 nt of nad4 coding sequence)]: the binding result in data set [1] is on record as “no binding”.

In the case of GAGGAAUCAGCAAAGAAAAGAAAAACGGGU (ssRNA) [3'ND4-1 (entire nad4 3' UTR, 30 nt)], in data set [1], the binding result is “binds”.

For the molecule CAAAGAAAAGAAAAACGGGU (ssRNA) [3'ND4-3 (last 20 nt of nad4 3' UTR)], the binding result in data set [2] is listed as “binds”. CAACAUCUUAAUGUGUAUUUGAGGAUAUUU (ssRNA) [3'ND4-4 (30 nt downstream of nad4 mRNA 3' end)]: in data set [1], the binding result is “no binding”.

These data come from PMC3711453.
